Measurements published in article PMC12381585.

T1: endogenous 14-3-3ζ (YWHAZ) in A549 cells (human (endogenous in A549)), P63104
T1 chain: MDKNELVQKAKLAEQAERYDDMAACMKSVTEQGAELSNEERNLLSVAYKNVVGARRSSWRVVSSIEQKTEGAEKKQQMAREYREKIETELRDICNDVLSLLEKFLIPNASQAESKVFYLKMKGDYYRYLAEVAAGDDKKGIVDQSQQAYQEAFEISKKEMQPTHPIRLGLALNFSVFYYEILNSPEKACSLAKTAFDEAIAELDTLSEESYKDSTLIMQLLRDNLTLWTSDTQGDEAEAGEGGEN

T2: purified recombinant 14-3-3ζ, P63104
T2 chain: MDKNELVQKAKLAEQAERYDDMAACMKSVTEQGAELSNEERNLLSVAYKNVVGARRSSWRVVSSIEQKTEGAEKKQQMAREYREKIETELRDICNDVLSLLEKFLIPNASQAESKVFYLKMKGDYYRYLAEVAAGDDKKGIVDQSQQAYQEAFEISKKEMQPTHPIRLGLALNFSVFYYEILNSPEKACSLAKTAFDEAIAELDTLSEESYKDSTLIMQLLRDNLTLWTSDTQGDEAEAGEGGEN


What was measured:
Conditions in all cases: remark: other sources report otherwise
[1] = target: T1, endogenous 14-3-3ζ (YWHAZ) in A549 …; assay: cross-linking
[2] = target: T1, endogenous 14-3-3ζ (YWHAZ) in A549 …; assay: native gel or EMSA
[3] = target: T2, purified recombinant 14-3-3ζ, P63104; assay: cross-linking

Row | stoichiometry N [1] | stoichiometry N [2] | stoichiometry N [3] | Binder
1 | 2 | 2 |  | endogenous 14-3-3ζ (YWHAZ) in A549 cells, P63104 1-245 (natural protein) MDKNELVQKAKLAEQAERYDDMAACMKSVTEQGAELSNEERNLLSVAYKNVVGARRSSWRVVSSIEQKTEGAEKKQQMAREYREKIETELRDICNDVLSLLEKFLIPNASQAESKVFYLKMKGDYYRYLAEVAAGDDKKGIVDQSQQAYQEAFEISKKEMQPTHPIRLGLALNFSVFYYEILNSPEKACSLAKTAFDEAIAELDTLSEESYKDSTLIMQLLRDNLTLWTSDTQGDEAEAGEGGEN
2 |  |  | 2 | purified recombinant 14-3-3ζ, P63104 1-245 (natural protein) MDKNELVQKAKLAEQAERYDDMAACMKSVTEQGAELSNEERNLLSVAYKNVVGARRSSWRVVSSIEQKTEGAEKKQQMAREYREKIETELRDICNDVLSLLEKFLIPNASQAESKVFYLKMKGDYYRYLAEVAAGDDKKGIVDQSQQAYQEAFEISKKEMQPTHPIRLGLALNFSVFYYEILNSPEKACSLAKTAFDEAIAELDTLSEESYKDSTLIMQLLRDNLTLWTSDTQGDEAEAGEGGEN
